Assay: soluble on expression in E. coli; label from the status in PepcDB or PDB records

MAAWKSWTALRLCATVVVLDMVVCKGFVEDLDESFKENRNDDIWLVDFYAPWCGHCKKLESIWNEVGLEMKSIGSPVKVGKMDATSYSSIASEFGVRGYPTIKLLKGDLAYNYRGPRTKDDIIEFAHRVSGALIRPLPSQQMFEHMQKRHRVFFVYVGGESPLKEKYIDAASELIVYTYFFSASEEVVPEVIFKI
soluble on expression in E. coli: soluble

ISDLHPQLQPLAETFLRLCRDQGVDPLLICTWRSSEEQAQLYRRGRDLPGAIVTYARPGESAHNATLHGNPAARAFDVVPLLAGKPICDIDHPHWQVMGR
soluble on expression in E. coli: not soluble

MAHHHHHHMPVSHHEGCGCKNSDEVLKGGEFLLKYINIDKVTALNEKTHGSCRKILKSYDNRLSPDNCESDVDHELIINIPFNSPCKISSLFLIGGEEGTYPRKIKIFSNREDIDFGNINDFKCVQELELSQDFHGSIEYPLKVTSLFNVSYLTLYFYENYGADTTKIFYIGLKGVGTNYIRKAVETVYEASPNLSDHKIEGSSKAAHFRFDAF
soluble on expression in E. coli: soluble

MSYYHHHHHHDYDIPTTENLYFQGAMDPEFRVINLAYDDNGTGDPVVFIAGRGGAGRTWHPHQVPAFLAAGYRCITFDNRGIGATENAEGFTTQTMVADTAALIETLDIAPARVVGVSMGAFIAQELMVVAPELVSSAVLMATRGRLDRARQFFNKAEAELYDSGVQLPPTYDARARLLENFSRKTLNDDVAVGDWIAMFSMWPIKSTPGLRCQLDCAPQTNRLPAYRNIAAPVLVIGFADDVVTPPYLGREVADALPNGRYLQIPDAGHLGFFERPEAVNTAMLKFFASVKA
soluble on expression in E. coli: soluble

MPCRLRKITVYETKSRFYIIGCDSTGSRYNVLKIDRIDPKALITGEPEYDYTREEILELLATISDGSSVVYRSSSKKGTKSGLIERATNAFGILGCVRFVEGYYLIIITRAHAVATLGYHPVYKIVEVAMIPIAMDGVSTSSEEQKYVKLFQSVDLSTDFYFSYSYDMSRTFQENSLRSDWNNHGQRRLEADERFVWNSFLLEPLRKNLISERWFVEIVHGYVRQEYIFLPIGRISLTIIGRRSTKYAGTRFLKRGANPTGNVANYVETEQIVWDMASSGNVADGRFSSFVQMRGSVPMRWSQDPSTRGVVGKPLILIDNHEPHAQTAASHFRDVRNKYGNPIVIMNLIKRNEKRRHEGVLHTQFLKNIEYLNQFLPNEEKLCYISFDVARCNKAANSMPSINVLNVMEDLSMKSILKNGWFQSFPLSEALKIRPREAFATLDAHHSKDGRFMIQHGICRTNCVDCLDRTNVAQFVIAKVALGCQLCAMGILDEPNLTLQSEVCRLLEDMFDEHGDTMALQYAGSQLVHSIKTYKKTAAFQERRRDVFQTLSRYYSNTFNDWDKQMAINLFLGVFRPRITTMKNLWDLTSDYNLHFPYSLKINTDYCAWTLSEKELEDLVFLDYDESENSDGYVEIRSIDVDGRRGSEGSEYRTLLFSSHEDFRDYHRTYEFTSLDDRIGRLFSIENRAIQVDGINEEPTTHAQFLKLWKTTETKEKDQKKPNKKDKEEKESDDEDDDEEISTQWSDVVEAQQEWYDLVNAPGNVTTTLQKSPTKRESTPPRNTSRAKRSLLSTGLQFAKDIYHLDHLKTQPEERRYYEKYAITAFKCNVRDWEKVKPTLLSEFKITSEVEPRRPTFFTTDDCYRTESPEVSGNSARFYIKSSHPLTTECSAQDYGFFSKYMQAT
soluble on expression in E. coli: not soluble

MSLVLAYYSGYAGNYAALTRYAASFNAVAVDFYNITAQGAVTGNGDPAPNDAISFLLGRKIPAYGCVSNVDGNGNWSADIAHAVSTSAQSQAVANLVKFAQDKRFSGINVDFEAVAQGDRNNFSHFIQVLGRALHAKGLKLIVSVPAFSAKDENHPANYGYDLRALGAAADYLQIMSYDEAIPAWDPGPVAGSDWMEDDLDYAVERVPAAKILNGIPAYGYDWKRPGDGGMLYWKDTQALIARYGAQPRYDAGTHSLTFNYGAADGSRHTVWTENARSVALKASLVNAYGLGGTSLYALGMEDEGHHHHHH
soluble on expression in E. coli: soluble

MAHHHHHHMQDEHKFNAEDRRRAPPPNTPERALDYHERTNDDKLIAHASQVNHLSKPRHRNCLTEFIIVETPVVSFLVDSSDPSLCLLRRSGRQGTKNEEKGVH
soluble on expression in E. coli: soluble

QGMNNPADAGINLNYLANVRPSSRQLAWQRMEMYAFLHFGMNTMTDREWGLGHEDPALFNPRNVDVDQWMDALVAGGMAGVILTCKHHDGFCLWPSRLTRHTVASSPWREGKGDLVREVSESARRHGLKFGVYLSPWDRTEESYGKGKAYDDFYVGQLTELLTQYGPIFSVWLDGANGEGKNGKTQYYDWDRYYNVIRSLQPDAVISVCGPDVRWAGNEAGHVRDNEWSVVPRRLRSAELTMEKSQQEDDASFATTVSSQDDDLGSREAVAGYGDNVCWYPAEVDTSIRPGWFYHQSEDDKVMSADQLFDLWLSAVGGNSSLLLNIPPSPEGLLAEPDVQSLKGLGRRVSEFREALASVRCEARTSSASAAAAHLVDGNRDTFWRPDADDAAPAITLTLPQPTTINAIVIEEAIEHGQRIEHLRVTGALPDGTERVLGQAGTVGYRRILRFDDVEVSSVTLHVDGSRLAPMISRAAAVRI
soluble on expression in E. coli: soluble

MGASSSSSVSEKSIHQFTVKDSSGKEVDLSVYQGKVLLVVNVASKCGFTESNYTQLTELYRKYKDQGFVVLAFPCNQFLSQEPGTSEEAHQFACTRFKAEYPVFQKVRVNGQNAAPVYKFLKSKKPSFLGSRIKWNFTKFLVGKDGQVIDRYGTTVSPLSIQKDIEKALAQEL
soluble on expression in E. coli: soluble

RTGFSVGAGVEYNFSRHWAIQSGLMITSKGATAEYEGYSPLSSSTDPISYKAKISPIYLDIPILAAFKIDISNHVKFAINIGPYLSVGMGGKYELTNTGGHKNESHNPFKSYSSTAEMKDKDALLKRFDIGVQGGIGFEIWKHYLINASFQHGFMDPIKGGTLYAGDTEKHYPIGGILTVGYRF
soluble on expression in E. coli: not soluble

MAHHHHHHMLSLCKSLSSDAPTRTKTRVVLSMFNASHVDELLASTTRTLQRSQVLLDERRSVIQSQQGLPPMFCVASSSAASTSVGSSAAAPYASASSSFADTVRSLQSLSELRSYVEATAEMMKRVREEGMEPSPAMQQRRARGQDFALLQSMTRGLRGAMTAAWQMSETTAALWAFSTEACGGAEEAAAAEDAASAAAGSTLCAVPGARSGGTRSSGAQLTSTLIFSAFCVDLAIAAPRAASAVAAELESVFEPSSDNGRPSSLVSEWMRDGNVKLSALLRDVAALLPPPVKTRLVARLADVLFRPSPALPRSPKESSGHPLGCELLSGGQLLLPSLDYYLLEQYPSSLASRWFLQPLQATAEHLRADYYASADQFHVQCRWLLRLVLTLLYACQSAALPTSTASRPPLERRLRTAQRLYDAWLIPLEKTFGNGTARHGMSVSFNRALVQPHGHMVERLLFTSSPASGVSGVSKVVQQSREWSGILYSAQYRLLLILEKLAHSEVAQVNGTSSTSAKQRTYETMLRQNGGKVSVSLLQTLAEDKQLLLDETPSRSPDGHRLYKLHDGLLDDSGKAVFVYLDDGALFTKVGRARAFQRVKSVEDIFKPLQ
soluble on expression in E. coli: not soluble

MDCDIASYHVDSFDFLVSKGCQFAAQAVPAEKFRLKNGDAVTMKFTSAQLHKPTLDTGAKLTSDTLPLLPAECRQRGLTYAGNLKVGIDVHVNGSRLDIIEIILGKVPIMLRSEGCHLRGMSRKELVVAGEEPIEKGGYFIVNGSEKVIRLLIANRRNFPIAIIRKTFKEKGKLFSEFGVMMRSVKENHTAVMMTLHYLDTGTMQLALQFRREIFYVPLMYIVKALTDKNDAVISAGFKRGRNQDQFYSSCILNMLAQCQEEEILNQEAAIRAIGSRFRVAVSDRVAPWEDDLEAGRFIIRECVLIHLDSDEEKFHTLAYMTQKLIALVKGECAPETPDNPQFQEASVSGHILLLILRERMENIIGMVRRKLEYMSSRKDFILTSAAILKALGNHTGGEITRGMAYFLATGNLVTRVGLALQQESGFSVIAERINQLRFVSHFRAIHRGAFFMEMRTTDVRKLRPEAWGFICPVHTPDGAPCGLLNHVTASCRIVTDLSDNSNVPSLLAELGMYTHKTVALAPPGEELYPVLMNGRFLGYVPITKAASIERYLRCAKVAKDARIPYTSEIALVRRSTDIKNIQTQYPGIYILSDAGRLIRPVRNLAMDAVEHIGTFEQVYLSVVLDPEEAEPGVTMHQELHPSCLFSFAGNLIPFPDHNQSPRNVYQCQMGKQTMGTAVHAWHSRADNKMYRLQFPQQPMLKLEAYEKYEMDEYPLGTNACVAVISYTGYDMEDAMTINKASYQRGFAHGTVIKVERINLVTERERKTIFYRNPREEIKTVGPDGLPIPGRRYFLDEVYYVTFNMETGDFRTHKFHYAEPAYCGLVRIVEQGEGDSGAKHALIQWRIERNPIIGDKFASRHGQKGINSFLWPVESLPFSETGMVPDIIFNPHGFPSRMTIGMMIESMAGKAAATHGENYDASPFVFNEDNTAINHFGELLTKAGYNYYGNETFYSGVDGRQMEMQIFFGIVYYQRLRHMIADKFQVRATGPIDPITHQPVKGRKKGGGIRFGEMERDAIIAHGTSFVLQDRLLNCSDRDVAYACRRCGSLLSVLMSSRAGSHLLKKKRKDDEPLDYTETQRCRTCDKDDQVFLLQVPRVFRYLTAELAAMNVKIKLGIEHPSKVTGS
soluble on expression in E. coli: not soluble

MLSYRHSFHAGNHADVLKHTVQSLIIESLKEKDKPFLYLDTHAGAGRYQLGSEHAERTGEYLEGIARIWQQDDLPAELEAYINVVKHFNRSGQLRYYPGSPLIARQLLREQDSLQLTELHPSDYPLLRSGFQKDSRARVEKADGFQQLKAKLPPVSRRGLILIDPPYEMKTDYQAVVSGIAEGYKRFATGTYALWYPVVLRQQIKRMIHDLEATGIRKILQIELAVLPDSDRRGMTASGMIVINPPWKLEQQMNNVLSWLHSKLVPAGTGHATVSWIVPE
soluble on expression in E. coli: not soluble

MDEDVLPGEVLAIEGIFMACGLNEPEYLYHPLLSPIKLYITGLMRDKESLFEAMLANVRFHSTTGIDQLGLSMLQVSGDGNMNWGRALAILTFGSFVAQKLSNEPHLRDFALAVLPAYAYEAIGPQWFRARGGWRGLKAYCTQVLTDDDDLEHHHHHH
soluble on expression in E. coli: soluble

GMGSYQLLVPPPEALSKPLSVPTRLLLGPGPSNLAPRVLAAGSLRMIGHMQKEMLQIMEEIKQGIQYVFQTRNPLTLVVSGSGHCAMETALFNLLEPGDSFLTGTNGIWGMRAAEIADRIGARVHQMIKKPGEHYTLQEVEEGLAQHKPVLLFLVHGESSTGVVQPLDGFGELCHRYQCLLLVDSVASLGGVPIYMDQQGIDIMYSSSQKVLNAPPGISLISFNDKAKYKVYSRKTKPVSFYTDITYLAKLWGCEGETRVIHHTTPVTSLYCLRESLALIAEQGLENCWRRHREATAHLHKHLQEMGLKFFVKDPEIRLPTITTVTVPAGYNWRDIVSYVLDHFSIEISGGLGPTEERVLRIGLLGYNATTENVDRVAEALREALQHCPKNKL
soluble on expression in E. coli: soluble

MSLKIVLIAPYRDLLETAITVKKDLNVDIELELGDLSEGVKVAREWEKKGVDIIISRGGTYQLIKESVSVPVVEIKVSAFDILRQFNGLIGCKEIIGVAGYKNVIYGCEVIGEILDLNLIKVVIEKEEEGLRQVAAAKEKGVSLIIGDTIGAYSAKRLGLKSRLITSGKEAVAAAVSESFRLAQALKAEKEKAEQIRTIVDFVHDGIIAIDKEGRVSIYNRMAEKIFKRPPAEAVGRKVETVVPNTRLYEVIETGKPQIGELQEVLGTMITTNRVPIVVGNEVVGAVATFQDVTMLQKVEQKIRRQLADRGLVAMYTFDEGHHHHHH
soluble on expression in E. coli: soluble

SHMQPFVYMAAPARIVFSAGSSADVAEEIRRLGLSRALVLSTPQQKGDAEALASRLGRLAAGVFSEAAMHTPVEVTKTAVEAYRAAGADCVVSLGGGSTTGLGKAIALRTDAAQIVIPTTYAGSEVTPILGQTENGVKTTMRGPEILPEVVIYDAELTLGLPVAISMTSGLNAMAHAAEALYARDRNPIASMMAVEGLRAMIEALPVVRQAPHDIGARETALYGAWLCGTVLGAVGMSLHHKLCHTLGGSLDLPHAETHAVLLPHTIAYVEEAAPNLLAPLAALVGGRAGAGLFDFAARLGAPSSLAALGVGADDLDPMAELATANPYWCPRPIEKTAIRDLLQRAFEGARPA
soluble on expression in E. coli: soluble

Reference: the DeepSol protein solubility set
